Data: IntAct's records for PubMed 25512093

Target: bicd2_human BICD2 (UniProt Q8TD16)
Chain of UniProt Q8TD16 (Q8TD16 whole entry): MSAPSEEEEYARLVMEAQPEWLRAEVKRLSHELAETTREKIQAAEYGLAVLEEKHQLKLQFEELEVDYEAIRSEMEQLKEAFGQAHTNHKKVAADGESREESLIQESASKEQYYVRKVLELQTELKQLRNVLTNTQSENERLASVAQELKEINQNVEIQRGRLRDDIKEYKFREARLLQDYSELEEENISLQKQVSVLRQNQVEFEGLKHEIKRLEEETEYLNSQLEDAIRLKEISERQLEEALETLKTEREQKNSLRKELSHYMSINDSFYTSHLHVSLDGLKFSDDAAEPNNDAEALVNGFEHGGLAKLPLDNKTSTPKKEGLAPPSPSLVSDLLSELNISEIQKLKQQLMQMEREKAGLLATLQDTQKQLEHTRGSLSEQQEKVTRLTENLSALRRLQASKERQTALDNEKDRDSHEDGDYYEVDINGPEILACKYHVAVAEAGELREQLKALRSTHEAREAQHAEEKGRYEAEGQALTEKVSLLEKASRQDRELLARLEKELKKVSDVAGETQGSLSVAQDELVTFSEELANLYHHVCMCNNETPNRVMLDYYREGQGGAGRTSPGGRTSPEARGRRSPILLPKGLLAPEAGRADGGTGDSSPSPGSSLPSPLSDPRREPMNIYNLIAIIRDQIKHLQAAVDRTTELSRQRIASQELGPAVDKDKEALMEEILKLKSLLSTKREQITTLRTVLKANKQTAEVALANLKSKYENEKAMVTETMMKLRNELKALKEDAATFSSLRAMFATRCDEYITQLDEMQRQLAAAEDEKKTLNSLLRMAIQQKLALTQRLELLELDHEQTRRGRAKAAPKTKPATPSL

Q: “Cytoplasmic dynein 1 heavy chain 1 (Homo sapiens), Q14204 R264L” was tested. Which “effect of a mutation on the interaction” value did it give?
A: increasing interaction strength

Q: For “Cytoplasmic dynein 1 heavy chain 1 (Homo sapiens), Q14204 R598C”, which “effect of a mutation on the interaction” value is on record?
A: increasing interaction strength
